The target in this assay is recombinant human PP1α (residues 7–300) (human, UniProt P62136 7-300). Kind of assay: SPR. In general terms: SPR reads the build-up and loss of mass on a sensor chip optically.

Where no end group is shown, it is not given here. [ ]: non-standard residue; d: D form. pS = N[C@@H](COP(=O)(O)O)C(=O)O

Chain of recombinant human PP1α (residues 7–300) (P62136 7-300): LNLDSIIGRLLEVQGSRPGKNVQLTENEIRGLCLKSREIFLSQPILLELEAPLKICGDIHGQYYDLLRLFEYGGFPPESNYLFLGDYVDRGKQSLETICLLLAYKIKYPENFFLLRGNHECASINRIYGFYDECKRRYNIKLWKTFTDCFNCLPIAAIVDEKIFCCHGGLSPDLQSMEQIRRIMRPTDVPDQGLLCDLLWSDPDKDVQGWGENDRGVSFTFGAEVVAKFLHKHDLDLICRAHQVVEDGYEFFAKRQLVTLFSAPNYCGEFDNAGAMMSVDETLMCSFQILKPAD

As usually defined, the koff is the first-order rate constant of dissociation. On to HIPR[pS]PYKFPSSPLRKKCCFHCQVCFITK (cysteine pairing not given here) [pRb-Tat hybrid peptide], for which the koff was determined as 0.00394 s⁻¹.
